Source: patent US20230340112A1 (published 2023)

Tests used:
mDC cell surface SIRPα [1] = biological target: T1, mDC cell surface SIRPα (human, UniProt P78324 31-504); experiment: FACS binding; Donor #298
cell-surface SIRPα (mDC) [2] = biological target: T2, cell-surface SIRPα (mDC) (human, UniProt P78324 31-504); experiment: FACS blocking of CD47/SIRPα; Donor #298
mDC cell surface SIRPα [3] = biological target: T1, mDC cell surface SIRPα; experiment: FACS binding; Donor #296
cell-surface SIRPα (mDC) [4] = biological target: T2, cell-surface SIRPα (mDC); experiment: FACS blocking of CD47/SIRPα; Donor #296

T2 sequence (P78324 31-504): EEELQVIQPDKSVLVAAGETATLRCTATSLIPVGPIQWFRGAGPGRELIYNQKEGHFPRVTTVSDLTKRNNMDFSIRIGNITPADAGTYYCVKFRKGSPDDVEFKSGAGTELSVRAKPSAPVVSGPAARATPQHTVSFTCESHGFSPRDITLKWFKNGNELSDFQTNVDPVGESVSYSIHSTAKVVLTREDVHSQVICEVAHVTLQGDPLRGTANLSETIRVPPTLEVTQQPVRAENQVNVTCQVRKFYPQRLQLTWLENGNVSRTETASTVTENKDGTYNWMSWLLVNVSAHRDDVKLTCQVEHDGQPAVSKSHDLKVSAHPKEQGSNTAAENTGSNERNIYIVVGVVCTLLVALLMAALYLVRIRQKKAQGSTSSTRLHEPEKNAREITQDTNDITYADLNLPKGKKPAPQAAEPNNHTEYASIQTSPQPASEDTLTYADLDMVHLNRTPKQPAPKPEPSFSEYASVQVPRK
T1 sequence (P78324 31-504): as above

EC50 (mDC cell surface SIRPα [1]): 1.27 nM | IC50 (cell-surface SIRPα (mDC) [2]): 1.77 nM | EC50 (mDC cell surface SIRPα [3]): 0.768 nM | IC50 (cell-surface SIRPα (mDC) [4]): 1.25 nM
B1: OSE-172 (antibody, V domains shown)
VH: EVQLVQSGAEVKKPGESLRISCKASGYSFTSYWVHWVRQMPGKGLEWMGNIDPSDSDTHYSPSFQGHVTLSVDKSISTAYLQLSSLKASDTAMYYCVRGGTGTLAYFAYWGQGTLVTVSS
VL: DVVMTQSPLSLPVTLGQPASISCRSSQSLVHSYGNTYLYWFQQRPGQSPRLLIYRVSNRFSGVPDRFSGSGSGTDFTLKISRVEAEDVGVYYCFQGTHVPYTFGGGTKVEIKR
